Measurements reported in patent publication US20200239573A1 (CRESCENDO BIOLOGICS, published 2020).
Substitutions are numbered along the chain they refer to.

Legend:
[1] = target: T1, recombinant human PD-1 Fc chimera (human, UniProt Q15116 25-167); test: HTRF inhibition; strep-tagged PD-L1 vs PD-1-Fc
T1 construct: Bought protein; also called human PD-1-huFc; huPD-1-Fc; not shown: human Fc
Experimental: All samples and reagents were prepared in HTRF assay buffer containing PBS, 0.1% (w/v) BSA and 0.4M Potassium Fluoride. […] Total binding controls containing periplasmic extract sample buffer and non-specific binding controls containing excess untagged competitor were set up on each plate for data normalisation. Time-resolved fluorescent emission at 620 nm and 665 nm was measured following excitation at 337 nm on the BMG PHERAstar plate reader. Data was expressed as a % of the total binding control (% control) after subtraction of the background signal determined from the non-specific binding control wells.

[2] = target: T1, recombinant human PD-1 Fc chimera; test: HTRF inhibition; biotinylated PD-L2-Fc vs Eu-cryptate PD-1-Fc
[3] = target: human PD-1 on primary human CD4+ T cells (human, UniProt Q15116 21-288); test: flow cytometry on PHA-stimulated human CD4+ T cells (live cell gate)
Chain of human PD-1 on primary human CD4+ T cells (Q15116 21-288): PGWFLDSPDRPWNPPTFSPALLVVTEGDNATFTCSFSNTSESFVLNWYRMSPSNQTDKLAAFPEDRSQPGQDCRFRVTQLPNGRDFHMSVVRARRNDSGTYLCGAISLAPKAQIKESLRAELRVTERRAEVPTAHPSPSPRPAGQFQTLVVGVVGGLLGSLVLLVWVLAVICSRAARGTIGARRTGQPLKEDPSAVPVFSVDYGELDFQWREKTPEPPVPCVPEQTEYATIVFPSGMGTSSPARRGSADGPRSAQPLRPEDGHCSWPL
Experimental: Binding of monovalent single domain antibodies and multivalent binding agents to T cells was measured using flow cytometry. […] T-cells were stimulated with 2.5 μg/ml PHA for 2-4 days in RPMI media supplemented with 10% FBS, 2 mM Glutamine, 1× Pen/Strep. Cells were transferred into 96 well plates (75000 per well), blocked for 10 mins with PBS/1% BSA, then incubated with serially diluted VH in staining buffer (PBS/1% BSA) for 1 hour at 4° C. Cells were washed with staining buffer by centrifugation then incubated with 10 μg/ml biotinylated Anti His antibody for 40 mins at 4° C. Cells were washed again then stained with Streptavidin Alexa Fluor-488 (10 μg/ml) and 1:5000 diluted Live Dead near IR stain (Molecular Probes cat no. L10119) for 30 mins at 4° C. After further washing cells were fixed and fluorescence measured by flow cytometry.

[4] = target: T2, human PD-1 expressed on cells (CHO human PD-1 cells) (human, UniProt Q15116 21-288); test: cell-based or functional assay
T2 sequence (Q15116 21-288): as above

[5] = target: T2, human PD-1 expressed on cells (CHO …); test: FMAT inhibition; 200 pM PD-L2 on CHO human PD-1 cells
Experimental: (§1) All reagents and serially diluted VH were prepared in FMAT assay buffer. […] Plates were incubated for 2 hours at room temperature then fluorescence measured in the FL2 (502 nm-537 nm) and FL5 (677-800 nm) channels on the Mirrorball plate reader (TTP) following excitation at 488 nm and 640 nm. Data was expressed as a % of the total binding control (i.e. % control) after subtraction of the background signal determined from the non-specific binding control wells.

[6] = target: T2, human PD-1 expressed on cells (CHO …); test: FMAT inhibition; 100 pM PD-L1-Fc on CHO human PD-1 cells
Experimental: as §1

[7] = target: T2, human PD-1 expressed on cells (CHO …); test: FMAT 1.57 epitope competition assay on CHO human PD-1 cells; competitor: 1.57-Strep tagged protein; 1 day in mouse serum
Experimental: (§2) For the epitope competition assay reagents were prepared in FMAT assay buffer. […] Plates were incubated for a minimum of 1.5 hours at room temperature then fluorescence measured in the FL2 (502 nm-537 nm) and FL5 (677-800 nm) channels on the Mirrorball plate reader (TTP) following excitation at 488 nm and 640 nm. Data was expressed as a % of the total binding control (i.e. % control) after subtraction of the background signal determined from the non-specific binding control wells.
(§3) Serum stability of VH and multivalent VH constructs was assessed by measurement of their activity following incubation for 0, 1, 4 or 7 days in mouse serum (Sigma M5905).

[8] = target: T2, human PD-1 expressed on cells (CHO …); test: FMAT 1.57 epitope competition assay on CHO human PD-1 cells; competitor: 1.57-Strep tagged protein; 0 days in mouse serum
Experimental: as §2, §3

[9] = target: T2, human PD-1 expressed on cells (CHO …); test: FMAT epitope competition on CHO human PD-1 cells; competitor 1 nM 1.1-Strep
Experimental: as §2

[10] = target: human PD-1 expressed on cells (CHO human PD-1 cells) (human) (UniProt Q15116); test: FMAT inhibition assay on CHO human PD-1 cells; blocked ligand: human Fc tagged human PD-L1
Chain of human PD-1 expressed on cells (CHO human PD-1 cells) (human) (Q15116 21-288): as above

[11] = target: T3, Strep tagged recombinant human PD-1 (human, UniProt Q15116 25-170, limits assumed); test: SPR Biacore T200, strep-tagged PD-1 amine-coupled, single cycle kinetics
T3 construct: the whole entry is named; also called strep tagged human PD-1; not shown: Strep tag
T3 sequence (Q15116 25-170 limits assumed): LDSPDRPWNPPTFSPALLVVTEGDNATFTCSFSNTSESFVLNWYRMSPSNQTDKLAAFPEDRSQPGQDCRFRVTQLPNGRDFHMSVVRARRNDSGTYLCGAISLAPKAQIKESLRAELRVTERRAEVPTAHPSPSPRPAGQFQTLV
Experimental: Single cycle kinetics assays were used to study the interaction between human PD-1 with Humabody® on a Biacore T200 instrument (GE Healthcare). Strep tagged recombinant human PD-1 was amine coupled to one flow cell of a CM-5 chip to create a low density surface (14 RU) using standard Biacore reagents. For the reference flow cell, a blank immobilisation was carried out. A five-point, three-fold dilution series of each Humabody® was made with a top concentration of 25 nM. The binding kinetics were followed by flowing the Humabody® over the chip surface in HBS EP+ buffer at a flow rate of 30 μl/min. The contact time for each of the association steps was 180 seconds and the dissociation step was 3300 seconds. The data was fitted to a 1:1 binding model after double reference subtraction using the Biacore T200 Evaluation software.

[12] = target: T2, human PD-1 expressed on cells (CHO …); test: cell-based or functional assay; remark: listed apart in the source
[13] = target: T2, human PD-1 expressed on cells (CHO …); test: cell-based or functional assay; remark: listed apart in the source
[14] = target: T1, recombinant human PD-1 Fc chimera; test: SPR Biacore T200, PD-1-Fc captured on protein G, single cycle kinetics
Experimental: Single cycle kinetics assays were used to study the interaction between human Fc tagged human PD-1 with Humabody® on a Biacore T200 instrument (GE Healthcare). Protein G was amine coupled to two flow cells of a CM-5 chip. Human Fc tagged recombinant human PD-1 was captured onto one of the flow cells. The other was used as the reference flow cell. A five point, three-fold dilution series of each Humabody® was made with a top concentration within the range of 50 to 150 nM. The binding kinetics were followed by flowing the Humabody® over the chip surface in HBS EP+ buffer at a flow rate of 30 μl/min. The contact time for each of the association steps was 180 seconds and the dissociation step was 3600 seconds. The data was fitted to a 1:1 binding model after double reference subtraction using the Biacore T200 Evaluation software.

T1 sequence (Q15116 25-167 limits assumed, change not shown): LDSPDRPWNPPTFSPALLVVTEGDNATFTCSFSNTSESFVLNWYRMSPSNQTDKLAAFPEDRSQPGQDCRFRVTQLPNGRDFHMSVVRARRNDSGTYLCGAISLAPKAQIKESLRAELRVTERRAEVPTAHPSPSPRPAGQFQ

B1: Humabody® 1.2 (VHH)
VHH: EVQLLESGGGLVKPGGSLRLSCAASGFTFSDYTMTWMRQAPGKGLEWVSYISTGGSIKYYTDSVKGRFTISRDNAKNSLYLQMNSLRADDTAVYYCAREAPLRLGESPHDAFDIWGQGTMVTVSS
notes: human VH single domain antibody
In the case of B1, the IC50 [1] is reported as 13 nM, the IC50 [2] is reported as 39 nM and the “EC50 (read off the curve)” value [3] is reported as ~2 nM.

B2: Humabody® 1.4 (VHH)
VHH: B1 VHH with E1Q, L5V, T33Y, T35I, T53G, S56T, I57T, S107T
notes: as for B1
Work on B2 yielded an IC50 [1] of 3.13 nM and an IC50 [2] of 14 nM.

B3: Humabody® 1.5 (VHH)
VHH: B1 VHH with L5V, S56N, I57T
notes: as for B1
B3 gave an IC50 [1] of 2.66 nM and an IC50 [2] of 22 nM.

B4: Humabody® 1.9 (VHH)
VHH: B1 VHH with E1Q, L5V, S30G, S56T, N84D
notes: as for B1
B4 was tested, and the IC50 [1] was 0.913 nM and the IC50 [2] was 7.5 nM.

B5: Humabody® 1.13 (VHH)
VHH: B1 VHH with S56T
notes: as for B1
Work on B5 yielded an IC50 [1] of 17 nM and an IC50 [2] of 10 nM.

B6: Humabody® 1.62 (VHH)
VHH: B1 VHH with E1Q, L5V, Y32S, T33S, T53S, S56A, I57V, Y59F, W115S
notes: as for B1
With B6 the “Reporter Assay EC50” value [4] was 14 nM, the IC50 [5] was 10 nM and the IC50 [6] was 5.7 nM.

B7: Humabody® 1.63 (VHH)
VHH: B1 VHH with L5V, Y32S, T33S, T53S, S56G, I57V, Y59F, W115S
notes: as for B1
B7 was tested, and the “Reporter Assay EC50” value [4] was 12 nM, the IC50 [5] was 6.9 nM and the IC50 [6] was 4.5 nM.

B8: Humabody® 1.64 (VHH)
VHH: B1 VHH with L5V, Y32S, T33S, T53S, S56G, I57V, Y59F, T61A, W115S
notes: as for B1
In the case of B8, the “Reporter Assay EC50” value [4] is reported as 25 nM, the IC50 [5] is reported as 9 nM and the IC50 [6] is reported as 5.8 nM. The “IC50 (read off the curve)” value [7] was ~0.8 nM and the “IC50 (read off the curve)” value [8] was ~0.9 nM.

B9: Humabody® 1.65 (VHH)
VHH: B1 VHH with E1Q, L5V, Y32S, T33S, T53S, S56G, I57V, Y59F, T61A, W115S
notes: as for B1
B9 was tested, and the “Reporter Assay EC50” value [4] was 11 nM, the IC50 [5] was 8.5 nM and the IC50 [6] was 5.8 nM.

B10: Humabody® 1.98 (VHH)
VHH: B1 VHH with L5V, Y32K, T33S, T53S, S56G, I57V, Y59F, T61A, D89E, W115S
notes: as for B1
B10 was tested, and the “Reporter Assay EC50” value [4] was 6.5 nM, the IC50 [6] was 2.08 nM and the IC50 [9] was 1.1 nM.

B11: Humabody® 1.99 (VHH)
VHH: B1 VHH with L5V, Y32R, T33S, T53S, S56G, I57V, Y59F, T61A, D89E, W115S
notes: as for B1
B11 was tested, and the “Reporter Assay EC50” value [4] was 4.2 nM, the IC50 [6] was 1.86 nM and the IC50 [9] was 1.4 nM.

B12: 1.57-1.57 (protein, part only; not given: Linker of unstated length, part only)
VH-linker-VH, part: QVQLVESGGGLVKPGGSLRLSCAASGFTFSDNSMTWMRQAPGKGLEWVSYISSGGGVIFYADSVKGRFTISRDNAKNSLYLQMNSLRADDTAVYYCAREAPLRLGESPHDAFDISGQGTMVTVSSQVQLVESGGGLVKPGGSLRLSCAASGFTFSDNSMTWMRQAPGKGLEWVSYISSGGGVIFYADSVKGRFTISRDNAKNSLYLQMNSLRADDTAVYYCAREAPLRLGESPHDAFDISGQGTMVTVSS
In the case of B12, the IC50 (read off the curve) [10] is reported as 0.9 nM.

B13: Humabody® 1.96 (VHH)
VHH: B1 VHH with L5V, Y32T, T33S, T53S, S56G, I57V, Y59F, T61A, D89E, W115S
notes: as for B1
B13 gave an IC50 [6] of 2.45 nM, a Kd [11] of 0.08 nM and a koff [11] of 0.00012 s⁻¹. The kon [11] was 1.52e+06 M⁻¹ s⁻¹ and the IC50 [9] was 1.6 nM.

B14: 1.57-6GS-1.57 (other)
chain: QVQLVESGGGLVKPGGSLRLSCAASGFTFSDNSMTWMRQAPGKGLEWVSYISSGGGVIFYADSVKGRFTISRDNAKNSLYLQMNSLRADDTAVYYCAREAPLRLGESPHDAFDISGQGTMVTVSSGGGGSGGGGSGGGGSGGGGSGGGGSGGGGSQVQLVESGGGLVKPGGSLRLSCAASGFTFSDNSMTWMRQAPGKGLEWVSYISSGGGVIFYADSVKGRFTISRDNAKNSLYLQMNSLRADDTAVYYCAREAPLRLGESPHDAFDISGQGTMVTVSS
notes: bivalent construct of two VH domains in one chain
B14 was tested, and the “EC50 (M), reporter assay” value [12] was 8.4e-10 M, the “EC50 (M), human PD-1 reporter gene assay” value [13] was 8.4e-10 M and the Kd [11] was 0.0171 nM. For the same binder, the koff [11] was 1.32e-05 s⁻¹, the kon [11] was 773000 M⁻¹ s⁻¹ and the “EC50 (read off the curve)” value [3] was ~0.2 nM.

B15: 1.57-9GS-1.57 (other)
chain: QVQLVESGGGLVKPGGSLRLSCAASGFTFSDNSMTWMRQAPGKGLEWVSYISSGGGVIFYADSVKGRFTISRDNAKNSLYLQMNSLRADDTAVYYCAREAPLRLGESPHDAFDISGQGTMVTVSSGGGGSGGGGSGGGGSGGGGSGGGGSGGGGSGGGGSGGGGSGGGGSQVQLVESGGGLVKPGGSLRLSCAASGFTFSDNSMTWMRQAPGKGLEWVSYISSGGGVIFYADSVKGRFTISRDNAKNSLYLQMNSLRADDTAVYYCAREAPLRLGESPHDAFDISGQGTMVTVSS
notes: as for B14
For B15, the “EC50 (M), reporter assay” value [12] was 1e-09 M, the “EC50 (M), human PD-1 reporter gene assay” value [13] was 1e-09 M and the “dissociation rate constant (koff)” value [14] was 8.4e-05 s⁻¹. It also gave a koff [14] of 1.14e-07 s⁻¹, a kon [14] of 1.36e+06 M⁻¹ s⁻¹ and a Kd [11] of 0.0222 nM. The koff [11] was 1.4e-05 s⁻¹ and the kon [11] was 630000 M⁻¹ s⁻¹.
